Data on 14 sequences can be found in a protein production outcome set (Wang et al. 2014).

The nature of the data set: label from the status in PepcDB records.
Regarding “MDISILQAVLIGLWTAFCFSGMLLGLYTNRCIVLSLGVGVILGDIQTALAVGAISELAYMGFGVGAGGTVPPNPIGPGIFGTLMAITTAGTKGKITPEAALALSTPIAVGIQFLQTATYTAFAGAPETAKKALQAGNFRGFKIAANGTIWAFAGLGFGLGVLGALSTQTLTDLFALIPPVLLNGLTLAGKMLPAIGFAMILSVMAKKELIPYILLGYVLAVYFGLPVLTPTANGDGVLTSVATNSVLGVPTIGVAIIATIFALLDIFRKPAAPTKETKTEGDNQDDWI”, the protein production result was “failed”. Regarding “MDITEKLRLITRNAEEVVTEEELRQLIETKEKPRAYVGYEPSGEIHLGHMMTVQKLMDLQEAGFEIIVLLADIHAYLNEKGTFEEIAEVADYNKKVFIALGLDESRAKFVLGSEYQLSRDYVLDVLKMARITTLNRARRSMDEVSRRKEDPMVSQMIYPLMQALDIAHLGVDLAVGGIDQRKIHMLARENLPRLGYSSPVCLHTPILVGLDGQKMSSSKGNYISVRDPPEEVERKIRKAYCPAGVVEENPILDIAKYHILPRFGKIVVERDAKFGGDVEYASFEELAEDFKSGQLHPLDLKIAVAKYLNMLLEDARKRLGVSV”, the protein production entry was “not failed”. In the case of “MDIVTNKIVVEKYNFETTMEENQPFENKIELEVHEVEPVDGNVELMAKGKIFKITIPFLLVLENFRIDGRISRIIQLKDFFGQFSDLEAKDVEGLSNPLIDYIKRLTYDVTEIAFDEPGVSLDF”, the protein production entry is “failed”. Regarding “MDIYIGFSLQIYVIQVRRKPTENLQKTYKKSGNGILFICLIANCEICGTNLLTSELYIPTFTSKTKVMKKRVSAVVIVLVCLGGVACIKTLSTSSVGLPQLAFDNIEALASGESSAYRCYGIGDVDCHGDKVDKMYSGYSLK”, the protein production result is reported as “failed”.

With “MDKDYYKIMGVSQDASEKDIKMAYRKLARKYHPDISKEPDAEERFKEMAEAYEVLKDPKKRSEYDQYLKYKEFNPQSDGFTGRRTQEQPFQEFHFDSDFFETLFGHSRYQQQPMTGQNYHGKITISLEEAYHGAVKNLQVPVEQGTETKIQTLKVKIPAGVKSGQQIRLAGQGGSGSGGGARGDLYLTVEVMKHPIFDVMENDIYLTLPVTPWEAALGATVVIPTLAGKIDLKIPPGSQGGQKLRIKNRGLPGSPPGNQYVLLKIITPPAQTEEAKALYKKMAEVMPYNPRKTMGV”, the protein production entry was “failed”. Take “MDKEQRNIVVFNASKRELFTSSSGYKSLQKKLRAQWKIQSIKEELTLEKLQGVKLWITAGPREKFTAAELEVLKQYLDSGGALLVMIGEGGELKYDTNINFLLEEFGIMVNNDAVIRNVYYKYFHPKEALVSNGVLNREISRAAGKVVTGVIDEENTGNNSQALTFVYPYGATLNVMKPAVAILSTGSVCFPLNRPVLAFHHSKNAGKLAVLGSCHMFSDQYLDKEENSRIMDVVFQWLTTDSIHLNQIDAEDPEITDYMMLPDTGSLSERLRVCLQEGDENPRDFTSLFDMSLLKLHTNTLPSVLDAYKQLNVKHEALQLITPQFETPLPPLQPAVFQPAFRDLPPPMLDLFDLDETFSSEKVRLAQLSNKCTDDDLEFYVRKCGDILGVTGNLDKDKRDAKHILEHVFFQVVEFKKLNEEHDVDTAEARFSMY”: the protein production entry is “not failed”.

On to “MDKHHSKKAILKLTLITTSILLMHSNQVNAEEQELKNQEQSPVIANVAQQPSPSVTTNTVEKTSVTAASASNTAKEMGDTSVKNDKTEDELLEELSKNLDTSNLGADLEEEYPSKPETTNNKESNVVTNASTAIAQKVPSAYEEVKPESKSSLAVLDTSKITKLQAITQRGKGNVVAIIDTGFDINHDIFRLDSPKDDKHSFKTKTEFEELKAKHNITYGKWVNDKIVFAHNYANNTETVADIAAAMKDGYGSEAKNISHGTHVAGIFVGNSKRPAINGLLLEGAAPNAQVLLMRIPDKIDSDKFGEAYAKAITDAVNLGAKTINMSIGKTADSLIALNDKVKLALKLASEKGVAVVVAAGNEGAFGMDYSKPLSTNPDYGTVNSPAISEDTLSVASYESLKTISEVVETTIEGKLVKLPIVTSKPFDKGKAYDVVYANYGAKKDFEGKDFKGKIALIERGGGLDFMTKITHATNAGVVGIVIFNDQEKRGNFLIPYRELPVGIISKVDGERIKNTSSQLTFNQSFEVVDSQGGNRMLEQSSWGVTAEGAIKPDVTASGFEIYSSTYNNQYQTMSGTSMASPHVAGLMTMLQSHLAEKYKGMNLDSKKLLELSKNILMSSATALYSEEDKAFYSPRQQGAGVVDAEKAIQAQYYITGNDGKAKINLKRMGDKFDITVTIHKLVEGVKELYYQANVATEQVNKGKFALKPQALLDTNWQKVILRDKETQVRFTIDASQFSQKLKEQMANGYFLEGFVRFKEAKDSNQELMSIPFVGFNGDFANLQALETPIYKTLSKGSFYYKPNDTTHKDQLEYNESAPFESNNYTALLTQSASWGYVDYVKNGGELELAPESPKRIILGTFENKVEDKTIHLLERDAANNPYFAISPNKDGNRDEITPQATFLRNVKDISAQVLDQNGNVIWQSKVLPSYRKNFHNNPKQSDGHYRMDALQWSGLDKDGKVVADGFYTYRLRYTPVAEGANSQESDFKVQVSTKSPNLPSRAQFDETNRTLSLAMPKESSYVPTYRLQLVLSHVVKDEEYGDETSYHYFHIDQEGKVTLPKTVKIGESEVAVDPKALTLVVEDKAGNFATVKLSDLLNKAVVSEKENAIVISNSFKYFDNLKKEPMFISKKEKVVNKNLEEIILVKPQTTVTTQSLSKEITKSGNEKVLTSTNNNSSRVAKIISPKHNGDSVNHTLPSTSDRATNGLFVGTLALLSSLLLYLKPKKTKNNSK”, for which the protein production result is listed as “failed”. For the sequence “MDKIRSLRFFIATLEGGSFAAAAKAYGTDPSTVSKAIHRLESDLGIQLFQRSTRQIRLTEAVRRYANTARFVLDELAACEDSLKSHNDALSGLLKINVPVSYGRLYIRPLLKEFCRRYPSITIDIHYDDAYVDIIEQGIDVSIRSGVVQDSQLIVRQLSPIDFIICGSQDYLTRHGVPSGPDAFNDHSWVRFRFKQTGKLLPIRMPEPDGTSEYNPERNFIVNDGESMAELCAEGLGLTQIPHFIARDWLKVGRLVPIFPSMRQAGNGVYLLYANREYVPARVRVFIDFITQAIQDMDETPFHTWAETLPIYQPNQGD”, the protein production entry is given as “failed”. The result for “MDKKPSILIFIVAYNAESTIENVLMRIPADLLDDFDAEVLVIDDQSSDDTVLRCAETIQSGKIRFKTNVLVNPENQGYGGNQKVGYQYAIEHDFDCVALLHGDGQYAPEYLRDLITPVTKGEAEAVFGSRMMTPFGALKGGMPAYKFVGNKILTLFQNIMLKTSLSEFHSGYRAYSVKALKQIPFHLNTPDFHFDTEIIIQLILWGFRIAERPIPTYYGDEICYVNGLKYALDVVITTTKARMQRLGLFHECKYEVIHPHNSNGYPEAKLSIKSPSGNRILEHHHHHH” reads “failed”; that for “MDKLDAMQVYVAVVDAHSFARAAEVLGQPRSTVSRVVKELEAWLGAQLLQRTTRKLSVTAEGRRYYEECKRLLAEMAAMEASFPGRSAQPAGRFKVGMPQSLARHCILPRIGEFLQQYPDLELILCSSDNVEDIIQEGFDCVIRTGRIEDSTTLVARPLARYRWMVLASPAWLAAHGRPQSIDELHQHRAVGYLNHRTGRTIDWLFSLDEGDCAIRMRETLVVDDTDAYIQAGIQGLGLIRVASYLAQPYLQSGALVACLEQAASDLPLSLVYPQNRYLPPAVRAFYDWSRRVLQPPHSEA”, “failed”. As for “MDKNETRATIIRIGTDLISRQGFNATGIDAVLKEAGVPKGSFYYYFRSKEEFGLAVIDHFAERYDQRLDTFLNDEEVTPLNRIRNYLESALARLEQNQCSKGCLIGNLGQELADQHERFRGRLDEIFRSWKDRFAACLREAQRGGELAPELDAGVAAGFILSGLEGAILRTKVMKSPQPLRDFIEILFASVLRRQA”, the protein production entry is reported as “not failed”. As for “MDKNIKNKAEELIKDLIQKIDNNPYDAQAYYNLGVALNDAHSAEQAEELFKKALNIFANSKEKSSLMHYGLGNVYYTNSIYDKAIVEFKKVQSEKLKQDSMLMMAQAYYAQENYPQAMMYALTVSENTKHNVDAISLLASCFMATGDLTNARKYYLKALEYDKDNVEVLFQLGVIELSLSGEAGKYFDRVKNLDNEYYKKMQQRLADVQRFLMTQKKGKSDE”, the protein production entry was “failed”. As to “MDKNNLEDLTGKKILRNGFGGLRLEYGTIFLDVGLFTYIVLILSIFFFLVERWFLGALTFVLHVPLLLLGIWCGER”, the protein production result is “failed”. As for “MDKPVVRDAALLIFRAVLGVIFVAHGWEKLFISGVTKTTGQFSAWGVPQPKLSVWITSISELLGGAFLVVGLLTTFVAGALALLIAAAIYFVHLSSGFFTVENGIEFPLLIIVSLLVIVVFGSGRASVDGVLTRG”, the protein production result is listed as “failed”.
